Measurements reported in patent KR20220147765A (dated 2022).
Where a chain is given by its changes, count along the chain named.

B1: RB6 (antibody, V domains shown)
VH: EVQLLESGGGLVQPGGSLRLSCAASGFTFSSYDMSWVRQAPGKGLEWVSGISYSGGSTYYADSVKGRFTISRDNSKNTLYLQMNSLRAEDTAVYYCARDVNFVPLVTFDYWGQGTLVTVSS
VL: QSVLTQPPSASGTPGQRVTLSCTGSSSNIGSNSVTWYQQLPGTAPKLLIYDDNQRPSGVPDRFSGSKSGTSASLAISGLRSEDEADYYCGTWDYSLSAYVFGGGTKLTVL
notes: also called SARS-CoV-2 RBD 특이적 IgG 선별항체 RB6; clone RB6
B2: RD3 (antibody, V domains shown)
VH: EVQLLESGGGLVQPGGSLRLSCAASGFTFSDYAMSWVRQAPGKGLEWVSWIYSGSGNKYYADSVKGRFTISRDNSKNTLYLQMNSLRAEDTAVYYCARFPIARTSNSQSSYDGMDVWGQGTLVTVSS
VL: B1 VL with L20I, T23S, S33A, T35S, D51A, Q54K, T91A, Y94S, S97N
notes: also called SARS-CoV-2 RBD 특이적 IgG 선별항체 RD3; clone RD3
B3: RD10 (antibody, V domains shown)
VH: EVQLLESGGGLVQPGGSLRLSCAASGFTFSDYAMSWVRQAPGKGLEWVSAIYPGGGSTYYADSVKGRFTISRDNSKNTLYLQMNSLRAEDTAVYYCARNLFGFDYWGQGTLVTVSS
VL: B1 VL with L20I, S33A, T35Y, N53S, Q54N, T91S, Y94D
notes: also called SARS-CoV-2 RBD 특이적 IgG 선별항체 RD10; clone RD10

These binders were tested against T1, SARS-CoV S 단백질의 RBD 항원 (SARS-CoV, UniProt P59594 306-527) (assay: ELISA, 0.1 μg antigen coated, IgG4).
T1 construct: also called SARS-CoV RBD
B1: binds. B2: binds. B3: binds.
